# Source: article PMC7539009, “Mechanism and evolution of the Zn-fingernail required for interaction of VARP with VPS29” (Nature Communications, 2020)
# Legend:
# [1] = target: VPS29 (short isoform, N-terminal sequence MLVL), untagged (UniProt Q9UBQ0-1 1-182); assay: SPR; Biacore T200; GST fusion captured on goat anti-GST antibody coupled to a CM5 chip, GST-CLA on the blank flow cell; VPS29 as analyte, typically 40 to 0.3 μM; 20 mM Tris, 200 mM NaCl, 0.1 mM TCEP, 0.5 μM ZnCl2, pH 7.4; 12 °C for the KD of 2–3 µM; equilibrium and kinetic analysis, single site; settings: both partners purified
# [2] = target: long VPS29 (isoform with the N-terminal sequence …) (UniProt Q9UBQ0-2 1-186); assay: as above; settings: both partners purified
Kd [1],Kd [2],Binder
> 300 µM,~67 µM,"GQQDLMINNPLSQDEGSLWNKFFQD (domain or fragment, TBC1D5 residues 132-156, holds the Asn Pro Leu motif and the short helix upstream of it; also called TBC1D5 (132–156); not shown: GST, N-terminal, kept) [GST-TBC1D5 (residues 132–156)]"
55 µM,,"GST-VARP residues 692-746, 4C mutant (all four Cys to Ser) (domain or fragment, non-native Trp residue numbered 747; source: E. coli BL21 (DE3) pLysS, pGEX6P1, purified (GST-Sepharose, S75 Superdex gel filtration); not shown: GST, N-terminal, kept) TEEDLEDAEDTVSAADPEFSHPLSQSPKSAPAQKRLAKVPASGLGVNVTSQDGSSW"
